Assay results published in the supplement of paper PMC9732359.
± gives the uncertainty stated by the source.

Test: protein stability index of a GFP-peptide fusion (yeast GPS) (PSI 1-4); higher = more stable; sorted into four equal gates, so the index is relative within each strain
Outline: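 Plasmids in a pooled yeast library fused tiled 17-residue yeast protein peptides downstream of GFP and also expressed Cherry. Mid-log cultures grown without leucine were sorted into four equal gates by GFP/Cherry fluorescence ratio. Each gate's plasmids were PCR-amplified and Illumina-sequenced, and reads were matched to strains by barcodes. The protein stability index is derived by multiplying each gate's read frequency by its gate number and summing the results.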

| Sequence | protein stability index (doa10∆) | protein stability index (pdr5∆) | protein stability index (san1∆) | protein stability index (ubr1∆) |
| --- | --- | --- | --- | --- |
| LWNQWLKLNTSLPSKLT [SRP68] | 1.45 ± 0.049 | 1.51 ± 0.052 | 1.36 ± 0.11 | 1.83 ± 0.037 |
| GCENPADVFRRCLVAVI [SRP72] | 1.93 ± 0.055 | 1.48 ± 0.048 | 2.29 ± 0.088 | 1.98 ± 0.077 |
| RTFRLNECVCTPYNADF [RPO31] | 2.25 ± 0.045 | 2.4 ± 0.049 | 2.77 ± 0.054 | 2.28 ± 0.065 |
| RSTDVWYEASTWIQQFK [ARP7] |  | 3.64 ± 0.13 | 2.45 ± 0.28 | 2.97 ± 0.13 |
| SSEQFNVWDWNNWTSAT [GAL11] | 3.08 ± 0.1 | 3.17 ± 0.095 | 3.14 ± 0.067 | 3.1 ± 0.083 |
| ISAKDMGQGLCNNINKG [BRR2] | 3.13 ± 0.14 | 3.25 ± 0.22 | 3.12 ± 0.12 | 3.26 ± 0.24 |
| DFTQEDELRKQELISKA [ISW2] | 3.11 ± 0.12 | 3.1 ± 0.076 | 3.03 ± 0.083 | 3.09 ± 0.09 |
| EIENLDKELRKTKFQYK [YIL149C/MLP2] | 2.73 ± 0.081 | 3.02 ± 0.086 | 3.07 ± 0.067 | 2.92 ± 0.074 |
| KYREGQVLFQGLIYSFN [POP1] | 2.46 ± 0.12 | 2.11 ± 0.081 | 2.46 ± 0.065 | 2.42 ± 0.11 |
| AASSQVSIVKLDTQLIT [SNF12] | 1.69 ± 0.08 | 1.74 ± 0.07 | 1.64 ± 0.16 | 2.02 ± 0.11 |
| GCLNFVDENDEVLLAGF [RPS23A] | 1.3 ± 0.083 | 1.53 ± 0.074 | 1.5 ± 0.095 | 1.27 ± 0.068 |
| PLPVETPRDRRKSVFAP [SSN2] | 2.67 ± 0.069 | 2.31 ± 0.077 | 2.99 ± 0.099 | 2.86 ± 0.049 |
| GSEIAISSLGYRSHIFA [SWI3] | 2.63 ± 0.057 | 2.27 ± 0.048 | 2.45 ± 0.051 | 2.34 ± 0.045 |
| NEDARAIFNNEFDSDDD [RPN4] | 3.09 ± 0.075 | 2.87 ± 0.096 | 3.42 ± 0.073 | 3.41 ± 0.097 |
| QQRIREIGLLPEDALVN [SMC3] |  |  | 3.27 ± 0.2 | 3.25 ± 0.13 |
| RDVRDQAAGGLSIRLTN [RPN8] | 2.89 ± 0.087 | 2.85 ± 0.095 | 2.89 ± 0.097 | 2.6 ± 0.071 |
| QRIAKNDPEYMDTSDDA [DLS1] | 3.01 ± 0.16 | 3.15 ± 0.12 | 2.82 ± 0.15 | 3.01 ± 0.079 |
| RNVTKGDIVRMLETAGF [SMC3] | 2.81 ± 0.099 | 3.07 ± 0.12 | 2.76 ± 0.1 | 3.19 ± 0.07 |
| PSSQSQNDTPMFKLGNF [YLR018C/POM34] | 2.54 ± 0.044 | 2.8 ± 0.046 | 2.79 ± 0.036 | 2.6 ± 0.028 |
| PDPRSTVIPEDEEIIQL [RPO21] | 2.65 ± 0.081 | 2.75 ± 0.087 | 2.79 ± 0.077 | 2.66 ± 0.063 |
| IHNTKLPAYSGEIGDFF [POP1] | 3.07 ± 0.06 | 3.1 ± 0.062 | 3.1 ± 0.047 | 3.02 ± 0.06 |
| TRIAGVVYHPSNNELVR [RPS8A] | 2.666 ± 0.019 | 2.47 ± 0.018 | 2.56 ± 0.02 | 2.652 ± 0.013 |
| ILTREVQNSTLAQLTSK [RPS1B] | 2.14 ± 0.069 | 2.71 ± 0.055 | 2.48 ± 0.075 | 2.45 ± 0.04 |
| PYAIIKGKARLGTLVNQ [RPL8B] | 1.83 ± 0.058 | 1.99 ± 0.06 | 1.28 ± 0.063 | 2 ± 0.053 |
| KHGTYDKLDDDGLIAPG [RPB2] | 3.02 ± 0.21 | 2.92 ± 0.24 |  |  |
| LEDLFSYRNGMASYMLN [YJR042W/NUP85] | 1.6 ± 0.071 | 1.25 ± 0.15 | 1.89 ± 0.13 | 2.42 ± 0.11 |

| Sequence | protein stability index (doa10∆) | protein stability index (pdr5∆) | protein stability index (san1∆) | protein stability index (ubr1∆) |
| --- | --- | --- | --- | --- |
| HEVVQDDSFSLLRIQML [PCI8] | 2.7 ± 0.049 | 2.96 ± 0.063 | 2.74 ± 0.047 | 2.84 ± 0.036 |
| HLSYCSNLTIYPIYELL [GRR1] | 2.54 ± 0.071 | 2.87 ± 0.1 | 3.17 ± 0.062 | 3.06 ± 0.074 |
| ARNVQVHQEPYVFNARP [RPS0A] | 3.01 ± 0.098 | 3.25 ± 0.063 | 2.99 ± 0.051 | 3.06 ± 0.063 |
| CVEWRLPEIAKEIYTTL [YJR042W/NUP85] | 1.4 ± 0.075 | 1.46 ± 0.071 | 1.52 ± 0.11 | 1.8 ± 0.066 |
| TEDVRLAPELNQAIWKR [RPL31B] | 2.67 ± 0.069 | 2.99 ± 0.083 | 3.03 ± 0.062 | 3.08 ± 0.05 |
| KLIEKKSAYANTEKDYK [SMC2] | 2.71 ± 0.057 | 2.59 ± 0.059 | 2.83 ± 0.053 | 2.88 ± 0.045 |
| RIQLMNDFTTKLINIKK [MED1] | 2.89 ± 0.081 | 2.81 ± 0.099 | 2.84 ± 0.11 | 2.97 ± 0.086 |
| EELVSLAVFLFDIYNRD [YJL039C/NUP192] | 2.03 ± 0.099 | 1.24 ± 0.059 | 1.41 ± 0.2 | 1.39 ± 0.071 |
| KLNQKYDIVKFLTVSKL [GRR1] | 1.76 ± 0.037 | 1.99 ± 0.03 | 2.06 ± 0.052 | 2.04 ± 0.026 |
| LLKYSNETKKRNFLETV [RPL1A] | 3 ± 0.25 | 2.72 ± 0.23 |  |  |
| TAEINCFMHLLVQLFLW [RPN3] | 1.77 ± 0.063 | 2.05 ± 0.051 | 1.68 ± 0.14 | 2.73 ± 0.072 |
| RIMSTRCMMAAQYFYSG [DIS3] | 1.67 ± 0.06 | 1.95 ± 0.058 | 1.58 ± 0.079 | 1.77 ± 0.04 |
| SEEPTDFGFDLDIEKEA [MCD1] | 2.77 ± 0.25 |  |  | 3.24 ± 0.14 |
| AVSTIASISLAIGYPTL [RPP0] | 1.92 ± 0.055 | 2.12 ± 0.056 | 1.53 ± 0.1 | 2.15 ± 0.049 |
| DKFPYKKLELPKYIDEL [SWP82] | 2.73 ± 0.074 | 2 ± 0.058 | 2.56 ± 0.064 | 2.83 ± 0.08 |
| VCDLALRFGEGASGEER [PUP2] | 2.75 ± 0.2 | 3.4 ± 0.2 |  | 3.1 ± 0.21 |
| NNESSDDMDIDEVNDRS [PCI8] | 3.09 ± 0.086 | 3.17 ± 0.072 | 3.05 ± 0.061 | 3.09 ± 0.081 |
| RGGVKRISGLIYEEVRA [HHF1] | 3.35 ± 0.13 | 3.13 ± 0.2 | 3.15 ± 0.11 |  |
| TTSVDVMLKGIVTALLE [SRP54] | 1.27 ± 0.047 | 1.22 ± 0.056 | 1.18 ± 0.1 | 1.11 ± 0.04 |
| YLHNVELGEKKNEKLKF [ISW2] | 2.84 ± 0.083 | 2.68 ± 0.094 | 2.89 ± 0.096 | 2.87 ± 0.1 |
| RLPVSEDTNTKPLFDFG [YOR098C/NUP1] | 2.76 ± 0.13 | 2.76 ± 0.12 | 1.93 ± 0.23 | 3.08 ± 0.13 |
| TRAMEYLKFRELPAGQN [RPB2] | 2.4 ± 0.072 | 2.75 ± 0.084 | 3.13 ± 0.071 | 3.02 ± 0.13 |
| DNMSEEQWLRQFEVSDD [SNF2] | 3.46 ± 0.099 | 3.22 ± 0.094 | 3.16 ± 0.12 | 3.36 ± 0.079 |
| MGKSAVIFVERATPATL [SRB2] | 2.36 ± 0.14 | 1.31 ± 0.076 | 1.66 ± 0.2 | 1.31 ± 0.29 |
| KHWTEKSLHEMNERDWR [PRP28] | 3.55 ± 0.21 | 3.02 ± 0.3 | 2.97 ± 0.2 |  |
